{"source": "the RNAGym collection of RNA variant scans (doi:10.7554/elife.80360)", "parents": {"B1": {"name": "HDV Ribozyme (parent)", "chain": "GGCCGGCAUGGUCCCAGCCUCCUCGCUGGCGCCGGCUGGGCAACAUUCCGAGGGGACCGUCCCCUCGGUAAUGGCGAAUGGGACCCA"}}, "data": [{"variants_of": "B1", "test": "self-cleavage, relative activity (ratio to wild type); higher = more cleavage; co-transcriptional", "values": [{"variant": "C24A C36A", "self-cleavage": 0.175}, {"variant": "U20C G50U", "self-cleavage": 0.163}, {"variant": "C44U G52C", "self-cleavage": 0.806}, {"variant": "C14A G39U", "self-cleavage": 0.222}, {"variant": "G5U C66A", "self-cleavage": 0.609}, {"variant": "C13G C85G", "self-cleavage": 0.0692}, {"variant": "C61U A70C", "self-cleavage": 0.892}, {"variant": "C30A G39C", "self-cleavage": 0.157}, {"variant": "C15U U47A", "self-cleavage": 1.23}, {"variant": "G1C G50U", "self-cleavage": 0.231}, {"variant": "C14A U27C", "self-cleavage": 0.554}, {"variant": "C61A G67A", "self-cleavage": 0.9}, {"variant": "G52U G74C", "self-cleavage": 0.363}, {"variant": "A8U G82U", "self-cleavage": 0.185}, {"variant": "G28C A87G", "self-cleavage": 0.125}, {"variant": "C30G A71U", "self-cleavage": 0.0875}, {"variant": "C18G G68C", "self-cleavage": 0.119}, {"variant": "C22A U60C", "self-cleavage": 0.424}, {"variant": "A78G C86U", "self-cleavage": 0.643}, {"variant": "U9A C24G", "self-cleavage": 0.111}, {"variant": "C41A G81U", "self-cleavage": 0.211}, {"variant": "G39A C58U", "self-cleavage": 0.443}, {"variant": "G31A A70U", "self-cleavage": 0.101}, {"variant": "G82U C85U", "self-cleavage": 0.451}, {"variant": "G39U U72C", "self-cleavage": 0.0573}, {"variant": "C36U A77G", "self-cleavage": 0.475}, {"variant": "C36G C86A", "self-cleavage": 0.181}, {"variant": "A16C A45U", "self-cleavage": 0.332}, {"variant": "C15A U20G", "self-cleavage": 0.19}, {"variant": "U37G C41U", "self-cleavage": 0.156}, {"variant": "G1U G38C", "self-cleavage": 0.369}, {"variant": "U20G G68C", "self-cleavage": 0.166}, {"variant": "C36U G76U", "self-cleavage": 1.05}, {"variant": "C21A C57G", "self-cleavage": 0.0811}, {"variant": "C64U C84A", "self-cleavage": 0.801}, {"variant": "C32U A51C", "self-cleavage": 0.541}, {"variant": "G35A C61A", "self-cleavage": 0.635}, {"variant": "C18U C64A", "self-cleavage": 0.332}, {"variant": "C15A C41A", "self-cleavage": 0.655}, {"variant": "A16C G76C", "self-cleavage": 0.731}, {"variant": "C24U C36A", "self-cleavage": 0.0256}, {"variant": "U37C C49U", "self-cleavage": 0.928}, {"variant": "U37C G81C", "self-cleavage": 0.138}, {"variant": "U46A G54C", "self-cleavage": 0.706}, {"variant": "C32U G54U", "self-cleavage": 0.923}, {"variant": "U37G G68C", "self-cleavage": 0.246}, {"variant": "G11C G29A", "self-cleavage": 0}, {"variant": "G1A G76C", "self-cleavage": 0.185}, {"variant": "C7A U27G", "self-cleavage": 0.447}, {"variant": "U47C G82U", "self-cleavage": 0.111}, {"variant": "C48U A83C", "self-cleavage": 0.906}, {"variant": "C58G C64G", "self-cleavage": 0.853}, {"variant": "A78U A87G", "self-cleavage": 0.226}, {"variant": "U37A G53A", "self-cleavage": 0.0594}, {"variant": "C3G G6U", "self-cleavage": 0.0665}, {"variant": "C22A C66U", "self-cleavage": 0.302}, {"variant": "C63U U65G", "self-cleavage": 0.96}, {"variant": "C44U C63G", "self-cleavage": 0.594}, {"variant": "G35U U79C", "self-cleavage": 0.0992}, {"variant": "U23C C61U", "self-cleavage": 0.975}, {"variant": "C58G G68C", "self-cleavage": 0.748}, {"variant": "C14A A43G", "self-cleavage": 0}, {"variant": "U47G C49A", "self-cleavage": 1.09}, {"variant": "C63A C66G", "self-cleavage": 0.494}, {"variant": "G10U C22G", "self-cleavage": 0.0623}, {"variant": "C26A C85G", "self-cleavage": 1.15}, {"variant": "G10A C21U", "self-cleavage": 0.0453}, {"variant": "G73A A77C", "self-cleavage": 0.161}, {"variant": "U23G C84U", "self-cleavage": 0.342}, {"variant": "C62G A71U", "self-cleavage": 0.489}, {"variant": "U12A C22U", "self-cleavage": 0.0426}, {"variant": "A51G C57U", "self-cleavage": 0.85}, {"variant": "G11A U47C", "self-cleavage": 0.475}, {"variant": "G40A C41G", "self-cleavage": 0.937}, {"variant": "U20G G80C", "self-cleavage": 0.0519}, {"variant": "U9C C86G", "self-cleavage": 1.14}, {"variant": "U46A A78U", "self-cleavage": 0.156}, {"variant": "C66G A78U", "self-cleavage": 0.48}, {"variant": "C36U C85U", "self-cleavage": 0.88}, {"variant": "G59C C64G", "self-cleavage": 0.892}, {"variant": "U12C C32U", "self-cleavage": 0.135}, {"variant": "G50C A83U", "self-cleavage": 0.504}, {"variant": "C13G A16U", "self-cleavage": 0.19}, {"variant": "G39C U46G", "self-cleavage": 0.262}, {"variant": "U23A C32A", "self-cleavage": 0.251}, {"variant": "G5C C41U", "self-cleavage": 0.277}, {"variant": "U20A A70C", "self-cleavage": 0.104}, {"variant": "C44A G53A", "self-cleavage": 0.831}, {"variant": "C7A A8U", "self-cleavage": 0.609}, {"variant": "G11U A16C", "self-cleavage": 0.38}, {"variant": "G68C G76U", "self-cleavage": 1.23}, {"variant": "G25C U46G", "self-cleavage": 0}, {"variant": "G10C G38A", "self-cleavage": 0.0692}, {"variant": "A16G A45G", "self-cleavage": 0.772}, {"variant": "A8U U9C", "self-cleavage": 0.906}, {"variant": "G2A C64G", "self-cleavage": 0.0923}, {"variant": "C26U C86G", "self-cleavage": 1.14}, {"variant": "C66G U69G", "self-cleavage": 1.18}, {"variant": "A16C G67A", "self-cleavage": 0.506}, {"variant": "C49U G76A", "self-cleavage": 1.08}, {"variant": "G2C U79G", "self-cleavage": 0}, {"variant": "C57G C75A", "self-cleavage": 0.287}, {"variant": "G5U U47G", "self-cleavage": 0.222}, {"variant": "G1U G80U", "self-cleavage": 0.479}, {"variant": "U23A U46A", "self-cleavage": 0.623}, {"variant": "C19U C48U", "self-cleavage": 0.0978}, {"variant": "G54C C85G", "self-cleavage": 0.724}, {"variant": "G17A", "self-cleavage": 0.718}, {"variant": "U20A C30U", "self-cleavage": 0.0415}, {"variant": "A51C U69G", "self-cleavage": 1.15}, {"variant": "A42C G67A", "self-cleavage": 0.249}, {"variant": "A16G A78U", "self-cleavage": 0.0692}, {"variant": "G10A G53U", "self-cleavage": 0.857}, {"variant": "C41A", "self-cleavage": 0.94}, {"variant": "U20C G55U", "self-cleavage": 0.199}, {"variant": "C7A G10A", "self-cleavage": 0.0831}, {"variant": "C22U A78U", "self-cleavage": 0.197}, {"variant": "C44U C58A", "self-cleavage": 1.07}, {"variant": "G6A A87C", "self-cleavage": 0.635}, {"variant": "C19U G80U", "self-cleavage": 0.0642}, {"variant": "A8U U46C", "self-cleavage": 0.554}, {"variant": "C32G C66A", "self-cleavage": 0.113}, {"variant": "U46G A71C", "self-cleavage": 0.982}, {"variant": "G34C G74U", "self-cleavage": 0.136}, {"variant": "G55C C63U", "self-cleavage": 0.808}, {"variant": "A42C G52A", "self-cleavage": 0.399}, {"variant": "U47C A51U", "self-cleavage": 0.831}, {"variant": "U12A G81U", "self-cleavage": 0.122}, {"variant": "G39A G82A", "self-cleavage": 0.136}, {"variant": "C30U G34U", "self-cleavage": 0.135}, {"variant": "U27C U47G", "self-cleavage": 0.782}, {"variant": "G5C C7G", "self-cleavage": 0}, {"variant": "G11C C41U", "self-cleavage": 0.0831}, {"variant": "A16U G52U", "self-cleavage": 0.863}, {"variant": "G54A C57U", "self-cleavage": 1.02}, {"variant": "U72C G81C", "self-cleavage": 0.271}, {"variant": "A16C U23A", "self-cleavage": 0.89}, {"variant": "C21U C32G", "self-cleavage": 0}, {"variant": "G11C C57U", "self-cleavage": 0.388}, {"variant": "G11C A51C", "self-cleavage": 0.35}, {"variant": "G73A G74U", "self-cleavage": 0.174}, {"variant": "A45C U47A", "self-cleavage": 0.911}, {"variant": "G38A U65A", "self-cleavage": 0.273}, {"variant": "G55C C62A", "self-cleavage": 1.04}, {"variant": "G28C A77U", "self-cleavage": 0.107}, {"variant": "C4U G68U", "self-cleavage": 0.657}, {"variant": "G2C U60C", "self-cleavage": 0.0545}, {"variant": "A43C A45C", "self-cleavage": 0.415}, {"variant": "G2C C13A", "self-cleavage": 0.0707}, {"variant": "A16U C36A", "self-cleavage": 0.0475}, {"variant": "C58A U72A", "self-cleavage": 0.883}, {"variant": "C19U G52C", "self-cleavage": 0.326}, {"variant": "G10U U60A", "self-cleavage": 0.635}, {"variant": "G5A A45C", "self-cleavage": 0.0462}, {"variant": "U20G G73C", "self-cleavage": 0}, {"variant": "C7G A56C", "self-cleavage": 0.391}, {"variant": "C57U C84U", "self-cleavage": 0.856}, {"variant": "U9G C49A", "self-cleavage": 1.11}, {"variant": "U37C C44G", "self-cleavage": 0.63}, {"variant": "C18A C84A", "self-cleavage": 0.151}, {"variant": "G5U G81A", "self-cleavage": 0.147}, {"variant": "A45U A71U", "self-cleavage": 1.01}, {"variant": "C13G G73C", "self-cleavage": 0.0396}, {"variant": "U37C C41U", "self-cleavage": 1.29}, {"variant": "G17U G31A", "self-cleavage": 0.107}, {"variant": "C49G C58U", "self-cleavage": 1.05}, {"variant": "G82A A87G", "self-cleavage": 0.342}]}]}
